Experimental data as given in patent US20140235490A1.

Test system: SNAPtide (FITC/DABCYL), List Biological Laboratories product #521

In the case of “BoNT/A complex (botulinum neurotoxin type A with neurotoxin associated proteins, Hall A strain)”, the “Km of SNAPtide conversion, non-bead based assay (free toxin)” value is reported as “non-bead based assay: typical Km=0.7 µM” and the “Km of the immobilized enzyme against the free enzyme” value is reported as 3.2-fold lower than for the free enzyme.
